The data set “SEC-MALS” deals with the molecule itself. The data set is described as follows: SEC-MALS.
Data set [1] has as its target M. tuberculosis LigD, wild type, His-tag removed by TEV (MST analyte) (M. tuberculosis, UniProt P9WNV3 1-759). In words: MST.
Data set [2] concerns the target M. tuberculosis LigD K579E (M. tuberculosis, UniProt P9WNV3 1-759, K579E). The data set is described as follows: MST.
In data set [3] the target is M. tuberculosis LigD V194D (M. tuberculosis, UniProt P9WNV3 1-759, V194D). In words: MST.
Data set [4] addresses M. tuberculosis LigD D162R (M. tuberculosis, UniProt P9WNV3 1-759, D162R). In words: MST.
The target of data set [5] is M. tuberculosis LigD R198E (M. tuberculosis, UniProt P9WNV3 1-759, R198E). The data set is described as follows: MST.
In data set [6] the target is M. tuberculosis LigD L580E (M. tuberculosis, UniProt P9WNV3 1-759, L580E). The data set is described as follows: MST.

What is called stoichiometry N is a count of units in the complex or per binding partner. As a reminder, the Kd is the concentration at which binding is half-saturated.

B1: M. tuberculosis Ku R262A (natural protein)
chain: MRAIWTGSIAFGLVNVPVKVYSATADHDIRFHQVHAKDNGRIRYKRVCEACGEVVDYRDLARAYESGDGQMVAITDDDIASLPEERSREIEVLEFVPAADVDPMMFDRSYFLEPDSKSSKSYVLLAKTLAETDRMAIVHFTLRNKTRLAALRVKDFGKREVMMVHTLLWPDEIRDPDFPVLDQKVEIKPAELKMAGQVVDSMADDFNPDRYHDTYQEQLQELIDTKLEGGQAFTAEDQPRLLDEPEDVSDLLAKLEASVKAASKANSNVPTPP
In the case of B1, the “stoichiometry N” value in the data set “SEC-MALS” came to 2. Moreover, the binding result in data set [1] is “binds”.

B2: M. tuberculosis Ku S258A (natural protein)
chain: MRAIWTGSIAFGLVNVPVKVYSATADHDIRFHQVHAKDNGRIRYKRVCEACGEVVDYRDLARAYESGDGQMVAITDDDIASLPEERSREIEVLEFVPAADVDPMMFDRSYFLEPDSKSSKSYVLLAKTLAETDRMAIVHFTLRNKTRLAALRVKDFGKREVMMVHTLLWPDEIRDPDFPVLDQKVEIKPAELKMAGQVVDSMADDFNPDRYHDTYQEQLQELIDTKLEGGQAFTAEDQPRLLDEPEDVSDLLAKLEAAVKARSKANSNVPTPP
Turning to B2, the “stoichiometry N” value in “SEC-MALS” amounted to 2. Moreover, the binding result in data set [1] was “binds”.

B3: M. tuberculosis Ku E246A (natural protein)
chain: MRAIWTGSIAFGLVNVPVKVYSATADHDIRFHQVHAKDNGRIRYKRVCEACGEVVDYRDLARAYESGDGQMVAITDDDIASLPEERSREIEVLEFVPAADVDPMMFDRSYFLEPDSKSSKSYVLLAKTLAETDRMAIVHFTLRNKTRLAALRVKDFGKREVMMVHTLLWPDEIRDPDFPVLDQKVEIKPAELKMAGQVVDSMADDFNPDRYHDTYQEQLQELIDTKLEGGQAFTAEDQPRLLDEPADVSDLLAKLEASVKARSKANSNVPTPP
For the molecule B3, the “stoichiometry N” value in the data set “SEC-MALS” is 2. For the same molecule, the binding result in data set [1] is recorded as “binds”.

B4: M. tuberculosis Ku E256A (natural protein)
chain: MRAIWTGSIAFGLVNVPVKVYSATADHDIRFHQVHAKDNGRIRYKRVCEACGEVVDYRDLARAYESGDGQMVAITDDDIASLPEERSREIEVLEFVPAADVDPMMFDRSYFLEPDSKSSKSYVLLAKTLAETDRMAIVHFTLRNKTRLAALRVKDFGKREVMMVHTLLWPDEIRDPDFPVLDQKVEIKPAELKMAGQVVDSMADDFNPDRYHDTYQEQLQELIDTKLEGGQAFTAEDQPRLLDEPEDVSDLLAKLAASVKARSKANSNVPTPP
Regarding B4, the “stoichiometry N” value in “SEC-MALS” is 2. In addition, in data set [1], the binding result is on record as “binds”.

B5: M. tuberculosis Ku K260A (natural protein)
chain: MRAIWTGSIAFGLVNVPVKVYSATADHDIRFHQVHAKDNGRIRYKRVCEACGEVVDYRDLARAYESGDGQMVAITDDDIASLPEERSREIEVLEFVPAADVDPMMFDRSYFLEPDSKSSKSYVLLAKTLAETDRMAIVHFTLRNKTRLAALRVKDFGKREVMMVHTLLWPDEIRDPDFPVLDQKVEIKPAELKMAGQVVDSMADDFNPDRYHDTYQEQLQELIDTKLEGGQAFTAEDQPRLLDEPEDVSDLLAKLEASVAARSKANSNVPTPP
For the molecule B5, in “SEC-MALS”, the “stoichiometry N” value was 2. Also, the binding result in data set [1] is on record as “binds”.

B6: M. tuberculosis Ku V248A (natural protein)
chain: MRAIWTGSIAFGLVNVPVKVYSATADHDIRFHQVHAKDNGRIRYKRVCEACGEVVDYRDLARAYESGDGQMVAITDDDIASLPEERSREIEVLEFVPAADVDPMMFDRSYFLEPDSKSSKSYVLLAKTLAETDRMAIVHFTLRNKTRLAALRVKDFGKREVMMVHTLLWPDEIRDPDFPVLDQKVEIKPAELKMAGQVVDSMADDFNPDRYHDTYQEQLQELIDTKLEGGQAFTAEDQPRLLDEPEDASDLLAKLEASVKARSKANSNVPTPP
Take B6: in the data set “SEC-MALS”, the “stoichiometry N” value turned out to be 2. In data set [1], the binding result is reported as “binds”.

B7: M. tuberculosis Ku, wild type, His-tagged and RED-tris-NTA labelled (MST ligand) (natural protein)
chain: MRAIWTGSIAFGLVNVPVKVYSATADHDIRFHQVHAKDNGRIRYKRVCEACGEVVDYRDLARAYESGDGQMVAITDDDIASLPEERSREIEVLEFVPAADVDPMMFDRSYFLEPDSKSSKSYVLLAKTLAETDRMAIVHFTLRNKTRLAALRVKDFGKREVMMVHTLLWPDEIRDPDFPVLDQKVEIKPAELKMAGQVVDSMADDFNPDRYHDTYQEQLQELIDTKLEGGQAFTAEDQPRLLDEPEDVSDLLAKLEASVKARSKANSNVPTPP
B7: in data set [1], the Kd worked out at 850 nM.

B8: M. tuberculosis Ku, wild type, His-tag removed by TEV (MST analyte) (natural protein)
chain: MRAIWTGSIAFGLVNVPVKVYSATADHDIRFHQVHAKDNGRIRYKRVCEACGEVVDYRDLARAYESGDGQMVAITDDDIASLPEERSREIEVLEFVPAADVDPMMFDRSYFLEPDSKSSKSYVLLAKTLAETDRMAIVHFTLRNKTRLAALRVKDFGKREVMMVHTLLWPDEIRDPDFPVLDQKVEIKPAELKMAGQVVDSMADDFNPDRYHDTYQEQLQELIDTKLEGGQAFTAEDQPRLLDEPEDVSDLLAKLEASVKARSKANSNVPTPP
Consider B8, for which the values for the Kd in data set [2] and in data set [6] were 510 nM and 1270 nM, respectively. The binding result in data set [3], in data set [4] and in data set [5] was “binds” each time.

B9: M. tuberculosis Ku S263A (natural protein)
chain: MRAIWTGSIAFGLVNVPVKVYSATADHDIRFHQVHAKDNGRIRYKRVCEACGEVVDYRDLARAYESGDGQMVAITDDDIASLPEERSREIEVLEFVPAADVDPMMFDRSYFLEPDSKSSKSYVLLAKTLAETDRMAIVHFTLRNKTRLAALRVKDFGKREVMMVHTLLWPDEIRDPDFPVLDQKVEIKPAELKMAGQVVDSMADDFNPDRYHDTYQEQLQELIDTKLEGGQAFTAEDQPRLLDEPEDVSDLLAKLEASVKARAKANSNVPTPP
Take B9: in “SEC-MALS”, the “stoichiometry N” value amounted to 2. Further, in data set [1], the binding result is on record as “binds”.

B10: M. tuberculosis Ku N266A (natural protein)
chain: MRAIWTGSIAFGLVNVPVKVYSATADHDIRFHQVHAKDNGRIRYKRVCEACGEVVDYRDLARAYESGDGQMVAITDDDIASLPEERSREIEVLEFVPAADVDPMMFDRSYFLEPDSKSSKSYVLLAKTLAETDRMAIVHFTLRNKTRLAALRVKDFGKREVMMVHTLLWPDEIRDPDFPVLDQKVEIKPAELKMAGQVVDSMADDFNPDRYHDTYQEQLQELIDTKLEGGQAFTAEDQPRLLDEPEDVSDLLAKLEASVKARSKAASNVPTPP
As to B10, the “stoichiometry N” value in “SEC-MALS” was 2.

The values above are taken from paper doi:10.64898/2025.12.12.693941 (bioRxiv, 2025).
